Experimental data reported in patent publication US20190085092A1.

Biological target: STn expressing TAG-72 glycoprotein (human tumor-associated glycoprotein 72) (human) (UniProt Q01973)
Test: flow cytometry on LS174T cells, 5 µg 3E8, detected with mouse anti-human IgG-PE

Sequence of UniProt Q01973 (Q01973 30-937 limits assumed): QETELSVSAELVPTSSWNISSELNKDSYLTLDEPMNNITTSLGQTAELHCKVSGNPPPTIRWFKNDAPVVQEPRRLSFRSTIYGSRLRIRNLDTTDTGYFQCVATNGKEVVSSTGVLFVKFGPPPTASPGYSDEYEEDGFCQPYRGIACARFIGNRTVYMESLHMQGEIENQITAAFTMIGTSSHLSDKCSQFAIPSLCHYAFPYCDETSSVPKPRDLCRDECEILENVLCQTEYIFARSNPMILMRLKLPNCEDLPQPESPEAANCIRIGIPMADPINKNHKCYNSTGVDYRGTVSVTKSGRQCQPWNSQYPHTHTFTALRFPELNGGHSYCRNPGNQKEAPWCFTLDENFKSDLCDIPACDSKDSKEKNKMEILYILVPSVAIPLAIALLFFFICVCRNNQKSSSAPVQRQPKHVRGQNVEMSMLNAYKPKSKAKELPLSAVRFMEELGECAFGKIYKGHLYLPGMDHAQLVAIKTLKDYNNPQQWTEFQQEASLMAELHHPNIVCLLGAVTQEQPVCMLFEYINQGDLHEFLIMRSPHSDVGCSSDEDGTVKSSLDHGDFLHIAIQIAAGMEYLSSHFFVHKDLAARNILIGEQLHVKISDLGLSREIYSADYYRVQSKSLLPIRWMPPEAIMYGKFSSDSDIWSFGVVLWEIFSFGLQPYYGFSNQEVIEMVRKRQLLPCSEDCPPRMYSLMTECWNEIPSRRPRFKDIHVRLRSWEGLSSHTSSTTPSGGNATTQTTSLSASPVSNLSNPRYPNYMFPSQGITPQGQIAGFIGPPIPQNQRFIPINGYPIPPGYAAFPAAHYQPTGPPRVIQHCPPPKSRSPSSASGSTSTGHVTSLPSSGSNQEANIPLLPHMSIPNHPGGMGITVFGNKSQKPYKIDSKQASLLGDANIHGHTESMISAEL

percent of cells stained: 98%
Substance: STn specific antibody (3E8)
